Experiment [1] concerns the target Mitochondrial antiviral signaling protein (MAVS), as HAVI-Fluc-MAVS and Rluc-MAVS-Flag, Q7Z434. In words: pull-down; DLR-PD (dual luciferase reporter pull-down): both proteins co-expressed in HEK293; lysate in passive lysis buffer on Streptavidin MagneSphere Paramagnetic Particles in PBS, 30 m to 1 h, room temperature; two washes PBS with 1% Nonidet P 40, one with PBS; the biotinylated HAVI-tagged protein is held, Fluc and Rluc activity read on the beads; in some samples eYFP-MAVS or other activators (IRF3) or HCV …. Particulars: remark: other sources report otherwise. On the technique in general: Reporter assays use an easily measured gene product as a stand-in for the process of interest.

The target of experiment [2] is MAVS cleaved by HCV NS3/4A (HAVI-Fluc-MAVS and Rluc-MAVS co-expressed with NS3/4A). The experiment in a line: pull-down; DLR-PD (dual luciferase reporter pull-down): both proteins co-expressed in HEK293; lysate in passive lysis buffer on Streptavidin MagneSphere Paramagnetic Particles in PBS, 30 m to 1 h, room temperature; two washes PBS with 1% Nonidet P 40, one with PBS; the biotinylated HAVI-tagged protein is held, Fluc and Rluc activity read on the beads; in some samples eYFP-MAVS or other activators (IRF3) or HCV NS3/4A (MAVS) co-expressed.

For experiment [3], the target named is T1, Interferon regulatory factor 3 (IRF3), as HAVI-Fluc-IRF3 and Rluc-IRF3-Flag, Q14653.
T1 chain: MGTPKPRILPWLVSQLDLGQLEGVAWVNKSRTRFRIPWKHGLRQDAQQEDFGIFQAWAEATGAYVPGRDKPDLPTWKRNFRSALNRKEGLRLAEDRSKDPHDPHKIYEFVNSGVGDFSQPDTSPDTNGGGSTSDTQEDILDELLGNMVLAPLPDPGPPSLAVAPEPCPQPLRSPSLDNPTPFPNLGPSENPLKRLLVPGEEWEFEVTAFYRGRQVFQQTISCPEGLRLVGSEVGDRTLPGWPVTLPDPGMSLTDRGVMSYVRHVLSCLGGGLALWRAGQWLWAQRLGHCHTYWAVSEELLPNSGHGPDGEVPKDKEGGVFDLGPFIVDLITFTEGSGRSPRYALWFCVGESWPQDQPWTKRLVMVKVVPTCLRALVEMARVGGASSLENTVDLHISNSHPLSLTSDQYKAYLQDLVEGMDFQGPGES
The experiment in a line: pull-down; DLR-PD (dual luciferase reporter pull-down): both proteins co-expressed in HEK293; lysate in passive lysis buffer on Streptavidin MagneSphere Paramagnetic Particles in PBS, 30 m to 1 h, room temperature; two washes PBS with 1% Nonidet P 40, one with PBS; the biotinylated HAVI-tagged protein is held, Fluc and Rluc activity read on the beads; in some samples eYFP-MAVS or other activators (IRF3) or HCV …. Particulars: remark: other sources report otherwise.

B1: Mitochondrial antiviral signaling protein (MAVS), as HAVI-Fluc-MAVS and Rluc-MAVS-Flag, Q7Z434 1-540 (natural protein)
chain: MPFAEDKTYKYICRNFSNFCNVDVVEILPYLPCLTARDQDRLRATCTLSGNRDTLWHLFNTLQRRPGWVEYFIAALRGCELVDLADEVASVYQSYQPRTSDRPPDPLEPPSLPAERPGPPTPAAAHSIPYNSCREKEPSYPMPVQETQAPESPGENSEQALQTLSPRAIPRNPDGGPLESSSDLAALSPLTSSGHQEQDTELGSTHTAGATSSLTPSRGPVSPSVSFQPLARSTPRASRLPGPTGSVVSTGTSFSSSSPGLASAGAAEGKQGAESDQAEPIICSSGAEAPANSLPSKVPTTLMPVNTVALKVPANPASVSTVPSKLPTSSKPPGAVPSNALTNPAPSKLPINSTRAGMVPSKVPTSMVLTKVSASTVPTDGSSRNEETPAAPTPAGATGGSSAWLDSSSENRGLGSELSKPGVLASQVDSPFSGCFEDLAISASTSLGMGPCHGPEENEYKSEGTFGIHVAENPSIQLLEGNPGPPADPDGGPRPQADRKFQEREVPCHRPSPGALWLQVAVTGVLVVTLLVVLYRRRLH
modifications: here or on the partner: biotin on a specific lysine residue of the Avi tag (by co-expressed BirA), on the HAVI-Fluc copy; biotin on a specific lysine residue of the Avi tag (by co-expressed BirA), on the HAVI-Fluc copy
On to B1, for which, in experiment [1], the activity ratio of Rluc/Fluc on the beads (Rluc/Fluc activity ratio) was determined as 0.28, the fold of the percentage of Rluc on the beads over the three negative controls is above 6 fold and the percentage of Rluc on the beads compared with the cell lysate is 0.13%.

B2: Rluc-TRAF3-Flag, Q13114 1-568 (natural protein)
chain: MESSKKMDSPGALQTNPPLKLHTDRSAGTPVFVPEQGGYKEKFVKTVEDKYKCEKCHLVLCSPKQTECGHRFCESCMAALLSSSSPKCTACQESIVKDKVFKDNCCKREILALQIYCRNESRGCAEQLMLGHLLVHLKNDCHFEELPCVRPDCKEKVLRKDLRDHVEKACKYREATCSHCKSQVPMIALQKHEDTDCPCVVVSCPHKCSVQTLLRSELSAHLSECVNAPSTCSFKRYGCVFQGTNQQIKAHEASSAVQHVNLLKEWSNSLEKKVSLLQNESVEKNKSIQSLHNQICSFEIEIERQKEMLRNNESKILHLQRVIDSQAEKLKELDKEIRPFRQNWEEADSMKSSVESLQNRVTELESVDKSAGQVARNTGLLESQLSRHDQMLSVHDIRLADMDLRFQVLETASYNGVLIWKIRDYKRRKQEAVMGKTLSLYSQPFYTGYFGYKMCARVYLNGDGMGKGTHLSLFFVIMRGEYDALLPWPFKQKVTLMLMDQGSSRRHLGDAFKPDPNSSSFKKPTGEMNIASGCPVFVAQTVLENGTYIKDDTIFIKVIVDTSDLPDP
modifications: here or on the partner: biotin on a specific lysine residue of the Avi tag (by co-expressed BirA), on the HAVI-Fluc copy
Regarding B2, in experiment [1], the activity ratio of Rluc/Fluc on the beads (Rluc/Fluc activity ratio) is 2.29, the fold of the percentage of Rluc on the beads over the three negative controls was above 26 fold and the percentage of Rluc on the beads compared with the cell lysate was 1.85%.

B3: Rluc-TRAF3-Flag (natural protein)
chain: B2 chain
B3: the activity ratio of Rluc/Fluc on the beads (100 ng NS3/4A vector) (Rluc/Fluc activity ratio) in experiment [2] worked out at 0.956.

B4: Interferon regulatory factor 3 (IRF3), as HAVI-Fluc-IRF3 and Rluc-IRF3-Flag, Q14653 1-427 (natural protein)
chain: T1 chain
modifications: here or on the partner: biotin on a specific lysine residue of the Avi tag (by co-expressed BirA), on the HAVI-Fluc copy; biotin on a specific lysine residue of the Avi tag (by co-expressed BirA), on the HAVI-Fluc copy
As to B4, in experiment [3], the activity ratio of Rluc/Fluc on the beads (10 ng MAVS vector, as the sentence says) (Rluc/Fluc activity ratio) was 0.01; the activity ratio of Rluc/Fluc on the beads (100 ng MAVS vector) (Rluc/Fluc activity ratio) was 0.75; the fold increase of the IRF3 dimerization ratio (overexpressed IKKε) was below 1000 fold; the fold of the percentage of Rluc on the beads over the negative control (10 ng of the MAVS vector) was determined as 27 fold.

Source of the values: article PMC3198426.
